Measurements taken from PMC4476238 (Journal of immunology (Baltimore, Md. : 1950), 2015).
Each block holds one binder with its values, some of them ahead of it.

Target: T1, Pep 4 (synthetic Phl p 1-derived peptide) (Phleum pratense (timothy grass))
T1 chain: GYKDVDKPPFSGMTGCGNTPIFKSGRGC
Test: ELISA

binding result: no binding
B1: ScFv 25VH/25VL (ScFv engineered from the V regions of the Phl p 1-specific IgE Fab clone 25) (scFv, V domains shown)
VH: LESGGGLVQPGGSLRLSCAASGFTFDDHAMHWVRQTPEKGLQWVSGISWNSGVVAYADSVKGRFSISRDNAKNSLYLQMNNLIPEDTAVYYCVRDFRAASPYFFDYWGQGTRVTVSS
VL: ELTQSPSSLSASVGDRVTITCRASQSIGNYLNWYQQKPGKAPNLLIYAASSLQSGVPSRFSGSGSGTDFTLTISSLQREDFATYYCQQSNRTPITFGQGTRLEIK

binding result: no binding
B2: P1 IgG1 (complete human monoclonal IgG1 Ab with the V regions of IgE Fab clone 25) (antibody, V domains shown)
VH: B1 VH
VL: B1 VL
